{"source": "patent US20230272390A1", "about": "“COMPOSITIONS AND METHODS FOR HEMOGLOBIN PRODUCTION” (THE CHILDREN'S HOSPITAL OF PHILADELPHIA, priority 2020, published 2023)", "target": "T1, endogenous ZNF410 (Homo sapiens, UniProt Q86VK4)", "T1 construct": "endogenous in cells; host or cells: HUDEP-2 (HUDEP-2-Cas9) cells, differentiated", "T1 sequence (Q86VK4 1-478)": "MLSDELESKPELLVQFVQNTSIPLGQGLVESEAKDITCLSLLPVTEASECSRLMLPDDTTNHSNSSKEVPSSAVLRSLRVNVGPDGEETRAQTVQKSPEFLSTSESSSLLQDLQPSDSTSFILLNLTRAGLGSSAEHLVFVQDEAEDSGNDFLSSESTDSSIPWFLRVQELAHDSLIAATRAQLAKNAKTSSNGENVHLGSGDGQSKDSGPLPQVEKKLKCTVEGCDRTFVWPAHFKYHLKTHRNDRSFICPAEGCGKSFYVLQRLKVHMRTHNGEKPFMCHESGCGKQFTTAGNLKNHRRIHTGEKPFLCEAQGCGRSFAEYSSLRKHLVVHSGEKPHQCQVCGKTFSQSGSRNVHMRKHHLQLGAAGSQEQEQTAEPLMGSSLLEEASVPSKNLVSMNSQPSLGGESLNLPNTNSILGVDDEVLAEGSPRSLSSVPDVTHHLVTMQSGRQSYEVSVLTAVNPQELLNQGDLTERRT", "experiment": "RT-qPCR in HUDEP-2 cells overexpressing HA-tagged ZNF410 constructs", "assay_type": "cell-based", "protocol": "HUDEP-2 cells were cultured and differentiated as described (Kurita, et al. (2013) PLoS One 8:e59890). Briefly, StemSpan™ Serum-Free Expansion Medium (SFEM) supplemented with 50 ng/ml human stem cell factor (SCF), 10 μM dexamethasone, 1 μg/ml doxycycline, 3 IU/ml erythropoietin and 1% penicillin/streptomycin was utilized for routine cell maintenance. Cell density was kept at 0.1-1×10^6/ml. HUDEP-2 cells were differentiated for 6-7 days in IMDM supplemented with 50 ng/ml human SCF, 3 IU/ml erythropoietin, 2.5% fetal bovine serum, 250 μg/ml holo-transferrin, 10 ng/ml heparin, 10 μg/ml insulin, 1 μg/ml doxycycline and 1% penicillin/streptomycin.\nSgRNAs were cloned into a lentiviral U6-sgRNA-EFS-GFP/mCherry expression vector (LRG, Addgene: #65656) by BsmBI digestion. The ZNF410 cDNA (clone ID: OHu10535), CHD4 cDNA (clone ID: OHu28780) were purchased from GenScript and were sub-cloned into a lentiviral vector pSDM101-IRES-GFP. ZNF410 variants were sub-cloned into pSDM101-IRES-GFP vector. The N-terminal HA tag was introduced by PCR. For EMSA, the ZNF410 full length or different ZF versions were sub-cloned into mammalian expression vector pcDNA3.\nLentivirus was produced as described (Grevet, et al. (2018) Science 361:285-290). Briefly, 10-20 μg of expression vectors, 5-10 μg of pVSVG (pMD2.G) and 7.5-15 μg of psPAX2 package plasmids, and 80 μl of 1 mg/ml polyethylenimine (PEI) were mixed, incubated for 15-20 minutes, and added to HEK293T cells grown in 10 cm plates to above 90% confluence. Media were replaced 6-8 hours post transfection, virus was collected 24 hours and 48 hours post-transfection and pooled. For infection, virus-containing supernatant was mixed with the indicated cell lines with 8 μg/ml polybrene and 10 mM HEPES, and then spun at 2250 rpm for 1.5 hours at room temperature. Infected HUDEP-2 cells were selected for mCherry+ or GFP+ cell sorting at 48 hours post-infection.\nTotal RNA was purified using the RNeasy® Plus Mini Kit (Qiagen), including an on-column DNAse treatment using RNase-free DNase set (Qiagen) to remove genomic DNA. Reverse transcription was accomplished using iScript™ Supermix (Bio-Rad). qPCR reactions were prepared with Power SYBR® Green (ThermoFisher Scientific). Quantification was performed using the ΔΔCT method.\nOverexpression of ZF1-5 but not ZF2-4 should compete with endogenous ZNF410 for chromatin binding, thus acting in a dominant-negative manner. To test this hypothesis, a construct containing HA-tagged ZF1-5 or ZF2-4 driven by the EF1α promoter was introduced via lentiviral infection into HUDEP-2 cells. As control, the expression of full-length HA-tagged ZNF410 was forced. […] Moreover, full-length HA-ZNF410 when overexpressed to similar levels to HA-ZF1-5 also produced similar binding patterns (FIG. 4A). […] Thus, the ZF region is sufficient for chromatin occupancy but insufficient for CHD4 gene activation. […] Finally, the impact of ZNF410 expression on γ-globin levels was also measured.", "key": {"[1]": {"conditions": "overexpression in HUDEP-2 cells"}}, "data": [{"molecule": "ZF1-5: fragment of human ZNF410 comprising five zinc finger domains ZF1-5 (residues 217-366); dominant-negative when overexpressed (protein, left off: small tags and cut ends, fragment of human ZNF410 comprising five zinc finger domains ZF1-5 (residues 217-366); dominant-negative when overexpressed) KKLKCTVEGCDRTFVWPAHFKYHLKTHRNDRSFICPAEGCGKSFYVLQRLKVHMRTHNGEKPFMCHESGCGKQFTTAGNLKNHRRIHTGEKPFLCEAQGCGRSFAEYSSLRKHLVVHSGEKPHQCQVCGKTFSQSGSRNVHMRKHHLQLG", "values": [{"measurement": "effect on expression of the other 6 ZNF410 bound genes", "setting": "[1]", "value": "did not impact"}, {"measurement": "reduction of CHD4 mRNA levels compared to control", "setting": "[1]", "value": "approximately 70%"}, {"measurement": "effect on γ-globin mRNA levels", "setting": "overexpression in differentiated HUDEP-2 cells", "value": "significant increase"}]}]}
